Test [1] has as its target T1, rHuman IGF-1 sR (insulin-like growth factor-1 soluble receptor), CF (R&D Systems Cat#391-GR) (human, UniProt P08069 31-932).
T1 construct: Bought soluble receptor; also called IGF-R1
Put plainly: MSD ECL multi-spot, Fab 0.14 uM, blank 237.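 Also: blank spot per well as comparator with Hit at signal to blank ratio of 4 or more.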

Test [2] addresses T2, rHuman P-Cadherin/Fc Chimera, CF (R&D Systems Cat#861-PC) (human, UniProt P22223 108-654).
T2 construct: Bought Fc chimera; Fc part of the bought chimera not given
Kind of test: MSD ECL multi-spot, Fab 0.14 uM, blank 237.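 Also: blank spot per well as comparator with Hit at signal to blank ratio of 4 or more.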

B1: Fab VH1-46_IGHD6-6*01_IGHJ1*01 & L6_IGKJ1*01 (Fab, V domains shown)
VH: QVQLVQSGAEVKKPGASVKVSCKASGYTFTSYYMHWVRQAPGQGLEWMGIINPSGGSTSYAQKFQGRVTMTRDTSTSTVYMELSSLRSEDTAVYYCAREEYSSSSAEYFQHWGQGTLVTVSS
VL: not shown
notes: Expressed in E. coli as Fab: heavy chain with CH1 plus Flag and His tags from Plasmid A, kappa light chain constant region from Plasmid C; also called Fab No. 1
Turning to B1, the ECL signal was found to be 663 in test [1] and 423 in test [2].
